Reference: article PMC11721787 (Science translational medicine, 2023)
Substitutions are numbered along the chain they refer to.

B1: ADI-42898 (monoclonal antibody, IgG) (antibody, V domains shown)
VH: QVQLVESGGGVVQPGRSLRLSCAASGFTFSSYAMHWVRQAPGKGLEWVAVTWFDVSKKDYADSVKGRFTISRDNSKNTLYLQMNSLRAEDTAVYYCARNLIRYSGSYFPVHGMDVWGQGTTVTVSS
VL: DIVMTQSPLSLPVTPGEPASISCRSSQSLLHTYGYNCLDWYLQRPGQSPQLLISLGSYRASGVPDRFSGSGSGTDFTLKISRVEAEDVGVYYCMQALHPFTFGGGTKVEIK
B2: ADI-65534 (antibody, V domains shown)
VH: B1 VH with T28E, G105V
VL: B1 VL with C37V
B3: ADI-65533 (antibody, V domains shown)
VH: B1 VH with G105V
VL: B1 VL with C37V

Target: ANDV Gn^H/Gc (Andes virus; strain , Q9E006 …, UniProt Q9E006)
Test: BLI

Row | Binder | half-life (t1/2) of the complex at pH 5.5 [s] | fold reduction of dissociation at acidic pH against ADI-42898 [fold]
1 | B1 | 519 | 
2 | B2 |  | 10
3 | B3 |  | 10
